The assay concerns the target T1, GST-RbC, Rb fusion protein encoding amino acids 780-928 (COOH-terminal domain only) (UniProt P06400).
T1 sequence (looked up): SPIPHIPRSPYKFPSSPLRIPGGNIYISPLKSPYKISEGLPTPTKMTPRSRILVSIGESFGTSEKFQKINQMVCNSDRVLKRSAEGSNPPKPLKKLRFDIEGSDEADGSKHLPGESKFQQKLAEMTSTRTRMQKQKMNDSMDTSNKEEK
The assay can be described thus: in vitro translated Rak on GST-RbC beads, SDS-PAGE and autoradiography (FIG. 5B, upper panel).

This is an account of results in US6531296.

B1: Rak protein (p54^rak), full-length nuclear tyrosine kinase (enzyme)
chain: MSNICQRLWEYLEPYLPCLSTEADKSTVIENPGALCSPQSQRHGHYFVALFDYHAPTAEELSFRAGDKLQVLDTLHEGWWFARHLEKRRDGSSQQLQGYIPSNYVAEDRSLQAEAWFFGAIRRSDAEKQLLYSENKTGSFLIRESESQKGEFSLSVLDGAVVKHYRIKRLDEGGFFLTRRRIFSTLNEFVSHYTKTSDGLCVKLGKPCLKIQVPAPFDLSYKTVDQWEIDRNSIQLLKRLGSGQFGEVWEGLWNNTTPVAVKTLKPGSMDPNDFLREAQIMKNLRHPKLIQLYAVCTLEDPIYIITELMRHGSLQEYLQNDTGSKIHLTQQVDMAAQVASGMAYLESRNYIHRDLAARNVLVGEHNIYKVADFGLARVFKVDNEDIYESRHEIKLPVKWTAPEAIRSNKFSIKSDVWSFGILLYEIITYGKMPYSGMTGAQVIQMLAQNYRLPQPSNCPQQFYNIMLECWNAEPKERPTFETLRWKLEDYFETDSSYSDANNFIR
The molecule B1 returned a fold less binding than to the RbABC fusion protein of 5 fold less.
